B1: His-GIV-CT (C-terminus of GIV/Girdin), wild type (domain or fragment)
chain: SETLESRHHKIKTGSPGSEVVTLQQFLEESNKLTSVQIKSSSQENLLDEVMKSLSVSSDFLGKDKPVSCGLARSVSGKTPGDFYDRRTTKPEFLRPGPRKTEDTYFISSAGKPTPGTQGKIKLVKESSLSRQSKDSNPYATLPRASSVISTAEGTTRRTSIHDFLTKDSRLPISVDSPPAAADSNTTAASNVDKVQESRNSKSRSREQQSS
B2: His-Bem1p (natural protein, yeast, UniProt P29366 1-551, looked up)
chain: MLKNFKLSKRDSNGSKGRITSADISTPSHDNGSVIKHIKTVPVRYLSSSSTPVKSQRDSSPKNRHNSKDITSPEKVIKAKYSYQAQTSKELSFMEGEFFYVSGDEKDWYKASNPSTGKEGVVPKTYFEVFDRTKPSSVNGSNSSSRKVTNDSLNMGSLYAIVLYDFKAEKADELTTYVGENLFICAHHNCEWFIAKPIGRLGGPGLVPVGFVSIIDIATGYATGNDVIEDIKSVNLPTVQEWKSNIARYKASNISLGSVEQQQQQSITKPQNKSAKLVDGELLVKASVESFGLEDEKYWFLVCCELSNGKTRQLKRYYQDFYDLQVQLLDAFPAEAGKLRDAGGQWSKRIMPYIPGPVPYVTNSITKKRKEDLNIYVADLVNLPDYISRSEMVHSLFVVLNNGFDREFERDENQNNIKTLQENDTATFATASQTSNFASTNQDNTLTGEDLKLNKKLSDLSLSGSKQAPAQSTSGLKTTKIKFYYKDDIFALMLKGDTTYKELRSKIAPRIDTDNFKLQTKLFDGSGEEIKTDSQVSNIIQAKLKISVHDI

Legend:
GST-hExo70 (human Exo70) = GST-hExo70 (human Exo70) (human, UniProt Q9UPT5 1-735); test: pull-down
Sequence of GST-hExo70 (human Exo70) (Q9UPT5 whole entry): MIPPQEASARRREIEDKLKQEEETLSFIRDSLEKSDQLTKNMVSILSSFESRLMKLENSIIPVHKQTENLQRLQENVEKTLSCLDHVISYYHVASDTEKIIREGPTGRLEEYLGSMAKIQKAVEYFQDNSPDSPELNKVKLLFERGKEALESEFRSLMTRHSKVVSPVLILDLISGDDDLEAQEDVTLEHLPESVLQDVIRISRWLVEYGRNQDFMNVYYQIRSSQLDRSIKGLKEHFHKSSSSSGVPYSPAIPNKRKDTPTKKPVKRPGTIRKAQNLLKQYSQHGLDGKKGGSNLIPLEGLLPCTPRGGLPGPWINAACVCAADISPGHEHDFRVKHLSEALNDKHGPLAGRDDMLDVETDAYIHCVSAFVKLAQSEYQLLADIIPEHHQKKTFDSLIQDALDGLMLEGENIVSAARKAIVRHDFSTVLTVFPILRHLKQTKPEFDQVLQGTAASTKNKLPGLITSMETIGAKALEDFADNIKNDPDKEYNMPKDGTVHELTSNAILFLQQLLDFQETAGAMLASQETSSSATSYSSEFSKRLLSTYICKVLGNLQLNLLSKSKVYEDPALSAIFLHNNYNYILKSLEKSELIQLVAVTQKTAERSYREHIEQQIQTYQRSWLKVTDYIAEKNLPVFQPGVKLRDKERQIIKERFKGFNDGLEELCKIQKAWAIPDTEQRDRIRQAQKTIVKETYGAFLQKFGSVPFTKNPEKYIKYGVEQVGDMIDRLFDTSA

GST-Exo70p (yeast Exo70) = GST-Exo70p (yeast Exo70) (yeast, UniProt P19658 1-623); test: pull-down
Sequence of GST-Exo70p (yeast Exo70) (P19658 whole entry): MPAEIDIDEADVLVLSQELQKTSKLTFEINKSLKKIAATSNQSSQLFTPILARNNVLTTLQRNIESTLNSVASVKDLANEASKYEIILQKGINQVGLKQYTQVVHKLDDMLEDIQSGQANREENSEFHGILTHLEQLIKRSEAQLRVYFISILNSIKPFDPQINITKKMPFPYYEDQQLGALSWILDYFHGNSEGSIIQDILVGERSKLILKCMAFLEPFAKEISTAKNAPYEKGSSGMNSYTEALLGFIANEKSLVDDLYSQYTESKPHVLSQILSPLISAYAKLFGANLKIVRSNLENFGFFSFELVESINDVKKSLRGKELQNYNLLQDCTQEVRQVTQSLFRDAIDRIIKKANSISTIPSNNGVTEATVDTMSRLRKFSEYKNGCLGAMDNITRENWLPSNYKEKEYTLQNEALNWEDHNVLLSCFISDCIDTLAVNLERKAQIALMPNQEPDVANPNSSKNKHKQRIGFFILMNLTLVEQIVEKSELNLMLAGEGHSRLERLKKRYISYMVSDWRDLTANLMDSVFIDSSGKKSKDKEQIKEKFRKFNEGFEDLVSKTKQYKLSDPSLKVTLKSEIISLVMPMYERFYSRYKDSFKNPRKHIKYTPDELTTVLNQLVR

Binder | fold binding against yeast Exo70p (GST-hExo70 (human Exo70)) [fold] | fold binding against human Exo70 (GST-Exo70p (yeast Exo70)) [fold]
B1 | 4 | –
B2 | – | 2

Reference: article doi:10.1101/870071 (bioRxiv, 2019)
